According to patent US20120316071A1 (published 2012):

What was measured:
[1] = target: T1, Recombinant Human DLL4 (delta-like protein 4) (human, UniProt Q9NR61 27-524); assay: ELISA, DLL4 coated on plate, Fab at 25 nM (2-fold dilution series), absorbance at 450 nm
T1 construct: Bought recombinant human DLL4 coated on the ELISA plate; also called rHuman DLL4

[2] = target: T1, Recombinant Human DLL4 (delta-like …); assay: ELISA, DLL4 coated on plate, Fab at 12.5 nM (2-fold dilution series), absorbance at 450 nm
[3] = target: T1, Recombinant Human DLL4 (delta-like …); assay: ELISA, DLL4 coated on plate, Fab at 50 nM (2-fold dilution series), absorbance at 450 nm
[4] = target: T1, Recombinant Human DLL4 (delta-like …); assay: ELISA, DLL4 coated on plate, Fab at 100 nM (2-fold dilution series), absorbance at 450 nm

B1: Fab VH5-51_IGHD5-18*01>3_IGHJ4*01 G100K/G104T G24T/S28R/G35V (KT TRV) & V3-4_IGLJ1*01 (wildtype) (Fab, V domains shown)
VH: EVQLVQSGAEVKKPGESLKISCKTSGYRFTSYWIVWVRQMPGKGLEWMGIIYPGDSDTRYSPSFQGQVTISADKSISTAYLQWSSLKASDTAMYYCARRKYSYTYDYFDYWGQGTLVTVSS
VL: QTVVTQEPSFSVSPGGTVTLTCGLSSGSVSTSYYPSWYQQTPGQAPRTLIYSTNTRSSGVPDRFSGSILGNKAALTITGAQADDESDYYCVLYMGSGISYVFGTGTKVTVL
notes: Fab; Expressed in E. coli with CH1 (plasmid A, His6 and Flag tags) and lambda CL (plasmid E); also called H:KT TRV & L:wt
ELISA signal [1]: 0.26 | ELISA signal [2]: 0.23 | ELISA signal [3]: 0.32 | ELISA signal [4]: 0.45

B2: Fab VH5-51_IGHD5-18*01>3_IGHJ4*01 G100K/G104T G24T/S28R/G35V (KT TRV) & V3-4_IGLJ1*01 V91L/S96P S52L (Fab, V domains shown)
VH: EVQLVQSGAEVKKPGESLKISCKTSGYRFTSYWIVWVRQMPGKGLEWMGIIYPGDSDTRYSPSFQGQVTISADKSISTAYLQWSSLKASDTAMYYCARRKYSYTYDYFDYWGQGTLVTVSS
VL: QTVVTQEPSFSVSPGGTVTLTCGLSSGSVSTSYYPSWYQQTPGQAPRTLIYLTNTRSSGVPDRFSGSILGNKAALTITGAQADDESDYYCLLYMGPGISYVFGTGTKVTVL
notes: Fab; Expressed in E. coli with CH1 (plasmid A, His6 and Flag tags) and lambda CL (plasmid E); also called H:KT TRV & L:LP S52L
ELISA signal [1]: 0.58 | ELISA signal [2]: 0.43 | ELISA signal [3]: 0.78 | ELISA signal [4]: 1.02

B3: Fab VH5-51_IGHD5-18*01>3_IGHJ4*01 G100K/G104T G24T/S28R/G35V (KT TRV) & V3-4_IGLJ1*01 V91L/S96P S52G (LP S52G) (Fab, V domains shown)
VH: EVQLVQSGAEVKKPGESLKISCKTSGYRFTSYWIVWVRQMPGKGLEWMGIIYPGDSDTRYSPSFQGQVTISADKSISTAYLQWSSLKASDTAMYYCARRKYSYTYDYFDYWGQGTLVTVSS
VL: QTVVTQEPSFSVSPGGTVTLTCGLSSGSVSTSYYPSWYQQTPGQAPRTLIYGTNTRSSGVPDRFSGSILGNKAALTITGAQADDESDYYCLLYMGPGISYVFGTGTKVTVL
notes: Fab; Expressed in E. coli with CH1 (plasmid A, His6 and Flag tags) and lambda CL (plasmid E); also called H:KT TRV & L:LP S52G
ELISA signal [1]: 0.9 | ELISA signal [2]: 0.63 | ELISA signal [3]: 1.02 | ELISA signal [4]: 1.14

B4: Fab VH5-51_IGHD5-18*01>3_IGHJ4*01 G100K/G104T G24L/S28R/G35V (KT LRV) & V3-4_IGLJ1*01 V91L/S96P S52M (Fab, V domains shown)
VH: EVQLVQSGAEVKKPGESLKISCKTSGYRFTSYWIVWVRQMPGKGLEWMGIIYPGDSDTRYSPSFQGQVTISADKSISTAYLQWSSLKASDTAMYYCARRKYSYTYDYFDYWGQGTLVTVSS
VL: QTVVTQEPSFSVSPGGTVTLTCGLSSGSVSTSYYPSWYQQTPGQAPRTLIYMTNTRSSGVPDRFSGSILGNKAALTITGAQADDESDYYCLLYMGPGISYVFGTGTKVTVL
notes: Fab; Expressed in E. coli with CH1 (plasmid A, His6 and Flag tags) and lambda CL (plasmid E); also called G100K/G104T G24L/S28R/G35V & V91L/S96P S52M
ELISA signal [1]: 0.59 | ELISA signal [2]: 0.41 | ELISA signal [3]: 0.8 | ELISA signal [4]: 1.01

B5: Fab VH5-51_IGHD5-18*01>3_IGHJ4*01 G100K/G104T G24A/S28R/G35V (KT ARV) & V3-4_IGLJ1*01 V91L/S96P S52H (Fab, V domains shown)
VH: EVQLVQSGAEVKKPGESLKISCKTSGYRFTSYWIVWVRQMPGKGLEWMGIIYPGDSDTRYSPSFQGQVTISADKSISTAYLQWSSLKASDTAMYYCARRKYSYTYDYFDYWGQGTLVTVSS
VL: QTVVTQEPSFSVSPGGTVTLTCGLSSGSVSTSYYPSWYQQTPGQAPRTLIYHTNTRSSGVPDRFSGSILGNKAALTITGAQADDESDYYCLLYMGPGISYVFGTGTKVTVL
notes: Fab; Expressed in E. coli with CH1 (plasmid A, His6 and Flag tags) and lambda CL (plasmid E); Fab H:KT TRV & L:LP S52H; also called G100K/G104T G24A/S28R/G35V & V91L/S96P S52H
ELISA signal [1]: 0.73 | ELISA signal [2]: 0.5 | ELISA signal [3]: 0.91 | ELISA signal [4]: 1.09

B6: Fab VH5-51_IGHD5-18*01>3_IGHJ4*01 G100K/G104T G24L/S28R/G35V (KT LRV) & V3-4_IGLJ1*01 V91L/S96P S52Q (Fab, V domains shown)
VH: EVQLVQSGAEVKKPGESLKISCKTSGYRFTSYWIVWVRQMPGKGLEWMGIIYPGDSDTRYSPSFQGQVTISADKSISTAYLQWSSLKASDTAMYYCARRKYSYTYDYFDYWGQGTLVTVSS
VL: QTVVTQEPSFSVSPGGTVTLTCGLSSGSVSTSYYPSWYQQTPGQAPRTLIYQTNTRSSGVPDRFSGSILGNKAALTITGAQADDESDYYCLLYMGPGISYVFGTGTKVTVL
notes: Fab; Expressed in E. coli with CH1 (plasmid A, His6 and Flag tags) and lambda CL (plasmid E); also called G100K/G104T G24L/S28R/G35V & V91L/S96P S52Q
ELISA signal [1]: 0.67 | ELISA signal [2]: 0.47 | ELISA signal [3]: 0.81 | ELISA signal [4]: 0.96

B7: Fab VH5-51_IGHD5-18*01>3_IGHJ4*01 G100K/G104T G24T/S28R/G35V (KT TRV) & V3-4_IGLJ1*01 V91L/S96P S52Y (Fab, V domains shown)
VH: EVQLVQSGAEVKKPGESLKISCKTSGYRFTSYWIVWVRQMPGKGLEWMGIIYPGDSDTRYSPSFQGQVTISADKSISTAYLQWSSLKASDTAMYYCARRKYSYTYDYFDYWGQGTLVTVSS
VL: QTVVTQEPSFSVSPGGTVTLTCGLSSGSVSTSYYPSWYQQTPGQAPRTLIYYTNTRSSGVPDRFSGSILGNKAALTITGAQADDESDYYCLLYMGPGISYVFGTGTKVTVL
notes: Fab; Expressed in E. coli with CH1 (plasmid A, His6 and Flag tags) and lambda CL (plasmid E); also called H:KT TRV & L:LP S52Y
ELISA signal [1]: 0.56 | ELISA signal [2]: 0.41 | ELISA signal [3]: 0.72 | ELISA signal [4]: 0.9

B8: Fab VH5-51_IGHD5-18*01>3_IGHJ4*01 G100K/G104T S28R (KT S28R) & V3-4_IGLJ1*01 (wildtype) (Fab, V domains shown)
VH: EVQLVQSGAEVKKPGESLKISCKGSGYRFTSYWIGWVRQMPGKGLEWMGIIYPGDSDTRYSPSFQGQVTISADKSISTAYLQWSSLKASDTAMYYCARRKYSYTYDYFDYWGQGTLVTVSS
VL: QTVVTQEPSFSVSPGGTVTLTCGLSSGSVSTSYYPSWYQQTPGQAPRTLIYSTNTRSSGVPDRFSGSILGNKAALTITGAQADDESDYYCVLYMGSGISYVFGTGTKVTVL
notes: Fab; Expressed in E. coli with CH1 (plasmid A, His6 and Flag tags) and lambda CL (plasmid E); also called H:KT S28R & L:wt
ELISA signal [1]: 0.2 | ELISA signal [2]: 0.18 | ELISA signal [3]: 0.23 | ELISA signal [4]: 0.26
